{"source": "patent US11448657B2", "about": "“Methods and kits for assessing Heparanase procoagulant activity, compositions comprising Heparanase, and methods for the treatment of coagulation-related disorders” (RAMBAM MED-TECH, priority 2011, dated 2022)", "molecules": {"B1": {"name": "heparanase: single chain GS3 active heparanase, comprised of the 8 kDa and 50 kDa heparanase heterodimer (8+50), recombinant human (protein, listed as Homo sapiens)", "chain 1": "DPAQDVVDLDFFTQEPLHLVSPSFLSVTIDANLATDPRFLILLGSPKLRTLARGLSPAYLRFGGTKTDFLIFDPKKE", "chain 2": "DPGKKFKNSTYSRSSVDVLYTFANCSGLDLIFGLNALLRTADLQWNSSNAQLLLDYCSSKGYNISWELGNEPNSFLKKADIFINGSQLGEDFIQLHKLLRKSTFKNAKLYGPDVGQPRRKTAKMLKSFLKAGGEVIDSVTWHHYYLNGRTATREDFLNPDVLDIFISSVQKVFQVVESTRPGKKVWLGETSSAYGGGAPLLSDTFAAGFMWLDKLGLSARMGIEVVMRQVFFGAGNYHLVDENFDPLPDYWLSLLFKKLVGTKVLMASVQGSKRRKLRVYLHCTNTDNPRYKEGDLTLYAINLHNVTKYLRLPYPFSNKQVDKYLLRPLGPHGLLSKSVQLNGLTLKMVDDQTLPPLMEKPLRPGSSLGLPAFSYSFFVIRNAKVAACI", "modifications": "single-chain GS3 linker"}}, "key": {"TF-factor VIIa complex": {"biological_target": "T1, TF-factor VIIa complex (Homo sapiens, UniProt P13726)", "T1 construct": "purchased American Diagnostica (Stanford, Conn., USA)", "T1 sequence (P13726 33-295)": "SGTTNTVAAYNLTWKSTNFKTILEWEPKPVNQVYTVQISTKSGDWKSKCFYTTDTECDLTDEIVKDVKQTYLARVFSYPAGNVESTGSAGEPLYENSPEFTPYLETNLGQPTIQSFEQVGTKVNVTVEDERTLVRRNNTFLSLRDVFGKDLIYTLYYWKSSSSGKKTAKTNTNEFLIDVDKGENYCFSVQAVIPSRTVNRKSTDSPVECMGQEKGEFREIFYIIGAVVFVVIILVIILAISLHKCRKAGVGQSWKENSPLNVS", "T1 sequence (P08709 61-212 partner limits assumed)": "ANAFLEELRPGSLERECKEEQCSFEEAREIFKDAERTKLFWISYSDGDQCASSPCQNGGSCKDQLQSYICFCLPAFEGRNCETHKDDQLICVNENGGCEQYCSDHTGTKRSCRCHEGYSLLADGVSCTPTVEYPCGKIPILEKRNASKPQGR", "T1 sequence (P08709 213-466 partner limits assumed)": "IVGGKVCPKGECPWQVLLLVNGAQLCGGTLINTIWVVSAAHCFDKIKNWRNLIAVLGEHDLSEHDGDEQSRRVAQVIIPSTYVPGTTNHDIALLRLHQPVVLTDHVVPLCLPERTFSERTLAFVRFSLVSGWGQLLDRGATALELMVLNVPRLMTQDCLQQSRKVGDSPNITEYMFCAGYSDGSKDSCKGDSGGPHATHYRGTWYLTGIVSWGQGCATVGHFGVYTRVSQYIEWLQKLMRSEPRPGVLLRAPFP", "test": "Activated factor X generation assay with purified TF, factor VIIa and factor X (chromogenic substrate)", "type": "biochemical", "protocol": "FIG. 1A. Recombinant human TF, recombinant human factor VIIa, and plasma-derived human factor X were incubated (15 min, 37° C.) in a total assay volume of 125 μL. Chromogenic substrate for the detection of factor Xa was then added (final concentration 1 mM). Recombinant active heparanase GS3 (Hepa) was added prior to the addition of the coagulation factors. The mean value±SD of three independent experiments in shown. […]\nFIG. 1C. […] The mean value of two experiments is shown. Note a 2-fold increase in coagulation activity when the medium contained heparanase or its derivatives.\nFollowing preliminary experiments to quantify the appropriate protein doses, we performed a basic experiment of factor Xa generation in the following manner: the concentrations mentioned are the final concentrations. Lipidated recombinant human TF (0.004 μM, […]), recombinant human factor VIIa (0.04 μM) and plasma-derived human factor X (1.4 μM) were incubated in 50 μL assay buffer (0.06 M Tris, 0.04 M NaCl, 2 mM CaCl 2, 0.04% bovine serum albumin, pH 8.4) to a total volume of 125 μL in a 96-well sterile plate. After 15 min at 37° C., chromogenic substrate for factor Xa was added (1 mM). After 20 min, the reaction was stopped with 50 μL of glacial acetic acid and the level of factor Xa generation was determined using an enzyme-linked immunosorbent assay (ELISA) plate reader (Power Wave XS, BIO-TEK, VT, USA). In order to visualize the increased production of factor Xa by western blotting, the experiment was repeated with 7 μM factor X. After 15 min at 37° C., half of the reaction volume was subjected to blotting using monoclonal anti-human factor X/Xa heavy chain antibody.\nThe factor Xa generation assay was performed as described in the Design and Methods section with increasing doses of recombinant human heparanase (GS3) added prior to the addition of the coagulation factors. […] It should be noted that factor X is composed of two polypeptide chains, a heavy chain with a molecular weight of 38 kDa and a light chain with a molecular weight of 18 kDa joined by a dipeptide Arg-Arg. The factor VIIa-TF complex activates the conversion of factor X to factor Xa by cleaving the heavy chain to a 33 kDa peptide. […] In order to exclude contamination of the heparanase preparation during the routine procedure of purification described in the Design and Methods section, the inventors tested the effect of overnight serum-free without phenol medium of 293 HEK cells over-expressing heparanase and its derivatives compared to mock. The proteins were further purified from the culture medium and analyzed. Similar quantities of proteins were obtained from the culture media."}, "factor X": {"biological_target": "T2, factor X (Homo sapiens, UniProt P00742)", "T2 construct": "plasma-derived human factor X; purchased American Diagnostica (Stanford, Conn., USA); host or cells: purified from human plasma", "T2 sequence (P00742 183-488 limits assumed)": "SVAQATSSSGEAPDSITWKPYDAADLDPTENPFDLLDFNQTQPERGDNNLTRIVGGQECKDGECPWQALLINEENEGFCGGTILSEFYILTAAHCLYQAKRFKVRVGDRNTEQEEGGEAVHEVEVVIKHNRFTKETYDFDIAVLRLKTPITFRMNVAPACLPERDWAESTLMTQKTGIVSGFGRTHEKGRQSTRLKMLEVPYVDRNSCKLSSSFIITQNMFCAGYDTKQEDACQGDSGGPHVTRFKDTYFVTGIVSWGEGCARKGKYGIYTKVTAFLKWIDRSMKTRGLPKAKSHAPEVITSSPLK", "T2 sequence (P00742 41-179 limits assumed)": "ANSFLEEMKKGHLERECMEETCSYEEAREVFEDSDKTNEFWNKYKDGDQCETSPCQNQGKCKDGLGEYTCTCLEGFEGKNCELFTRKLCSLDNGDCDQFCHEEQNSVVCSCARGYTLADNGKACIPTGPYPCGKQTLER", "test": "Direct activation of factor X by heparanase", "type": "biochemical", "conditions": "heparanase with factor X, 15 min 37° C."}, "TF": {"biological_target": "T3, TF (Homo sapiens, UniProt P13726)", "T3 construct": "purchased American Diagnostica (Stanford, Conn., USA)", "T3 sequence (P13726 33-295)": "as the sequence (P13726 33-295) above", "test": "Far-western analysis of heparanase binding to TF and TFPI", "conditions": "heparanase 1 μg/mL, 2 h, 4° C.; TF 100 ng, TFPI 100 ng", "protocol": "FIG. 7B. Far-western analysis. Recombinant TF (100 ng) and TFPI (100 ng) were resolved by SDS-PAGE under reducing conditions using a 10% gradient polyacrylamide gel. After electrophoresis, proteins were transferred to a polyvinylidene fluoride membrane. The membrane was incubated for 2 h with GS3 active heparanase protein (1 μg/mL, 4° C.). Next, the membrane was probed with anti-heparanase antibody followed by horseradish peroxidase-conjugated secondary antibody and chemiluminescence substrate, as described in the Design and Methods section."}, "[1]": {"tested_on": "TF-heparanase interaction", "test": "Co-immunoprecipitation of TF and heparanase", "type": "binding, human", "conditions": "purified TF and GS3 active heparanase 1 μg/mL each", "protocol": "FIGS. 7A-7B: Direct interaction between heparanase and TF FIG. 7A. Co-immunoprecipitation. Purified TF (1 μg/mL) and GS3 active heparanase (1 μg/mL) proteins were incubated with beads coupled to polyclonal anti-TF (upper panel), or anti-heparanase (lower panel) antibodies. Bound proteins were analyzed by immunoblotting for the presence of heparanase (upper panel) or TF (lower panel), using the respective monoclonal antibody.\nThe interaction between TF and heparanase was analyzed by co-immunoprecipitation (Co-IP). The ProFound™ Co-Immunoprecipitation Kit in which the antibody is coupled to gel support, was employed according to the manufacturer's instruction (Pierce, Rockford, Ill., USA). Briefly, coupling gel was washed with coupling buffer. Polyclonal anti-TF or polyclonal anti-heparanase (1453) antibodies (100 μg) and 5 M sodium cyanoborohydride, were added to the gel support and incubated at 4° C. for 4 hours. The gel was then washed with quenching buffer and incubated with the quenching buffer and sodium cyanoborohydride at 20° C. for 30 minutes. Next, the gel was washed 4 times with wash solution, once with elution buffer, and twice with coupling buffer. Purified proteins (0.5 μg) were added to the gel and incubated for 2 hours at 4° C. […]"}, "prothrombin": {"biological_target": "T4, prothrombin (Homo sapiens, UniProt P00734)", "T4 construct": "plasma-derived human prothrombin; purchased American Diagnostica (Stanford, Conn., USA); host or cells: purified from human plasma", "test": "Direct activation of prothrombin by heparanase", "type": "biochemical", "conditions": "heparanase with prothrombin, 15 min 37° C."}}, "data": [{"molecule": "B1", "values": [{"measurement": "increase in coagulation activity (factor Xa level)", "setting": "TF-factor VIIa complex; TF, factor VIIa, factor X, 15 min 37° C., heparanase added prior to the coagulation factors", "result": 2, "unit": "fold"}, {"measurement": "effect on Xa generation at reduced factor VIIa", "setting": "TF-factor VIIa complex; absence of sufficient factor VIIa", "result": "effect of heparanase was abolished"}, {"measurement": "increase in factor Xa levels", "setting": "TF-factor VIIa complex; overnight serum-free medium of 293 HEK cells over-expressing heparanase species, compared to mock", "result": 2, "unit": "fold"}, {"measurement": "Xa generation at reduced TF", "setting": "TF-factor VIIa complex; very low levels of TF (3.13 μg)", "result": "increased Xa generation by three folds"}, {"measurement": "factor Xa generation in incomplete reaction mixture", "setting": "TF-factor VIIa complex; without TF, factor VIIa or factor X, or with inactivated VIIa", "result": "Factor Xa was not generated"}, {"measurement": "factor Xa generation from factor X alone", "setting": "factor X", "result": "no factor Xa was generated"}, {"measurement": "binding to TF and TFPI on membrane", "setting": "TF", "result": "A clear band was revealed in the TF-heparanase lane but not in the TFPI-heparanase lane"}, {"measurement": "interaction with TF", "setting": "[1]", "result": "interacts with TF"}, {"measurement": "thrombin generation from prothrombin alone", "setting": "prothrombin", "result": "no thrombin was generated"}]}]}
